Measured values: patent US20140057807A1 (UNIVERSITY OF CHICAGO, published 2014)

B1: SEQ ID NO 243 (designed binder)
chain: NVSPPRRARVTDATETTITISWRTKTETITLFEVYADPQVSNGTYIQRTIKPDVRSYTITGLQPGTYYRIGLYTLSDYEKSTPVVIDAST
B2: SEQ ID NO 225 (designed binder)
chain: VSDVPRDLEVVAAAPTSLLISWDAPAVTVRKYYIWYGYSYFVAYSSYQEFTVPGSKSTATISGLKPGVRYYIGVLAVKYPGDYYPISINYRT
B3: SEQ ID NO 230 (designed binder)
chain: VSDVPRDLEVVAATPTSLLISWDAPAVTVRNYYIGYRYTVANWCYQEFTVPGSKSTATISGLKPGVSYWITAKAVVFEGDHPISINYRT
B4: SEQ ID NO 249 (designed binder)
chain: NVSPPRRARVTDATETTITISWRTKTETITYFGVRAYPTYRSSIQRTIKPDVRSYTITGLQPGTLYRISLYTLDSAGYNPVVIDAST
B5: SEQ ID NO 224 (designed binder)
chain: VSDVPRDLEVVAATPTSLLISWDAPAVTVRYYSIAYWQLYLPVQEFTVPGSKSTATISGLKPGVSYGITVEAVMSGYSIYPISINYRT
B6: SEQ ID NO 245 (designed binder)
chain: NVSPPRRARVTDATETTITISWRTKTETITDFGVVASPYLGQGIQRTIKPDVRSYTITGLQPGTAYSIKLHTLHVHDYYPVVIDAST
B7: SEQ ID NO 244 (designed binder)
chain: NVSPPRRARVTDATETTITISWRTKTETITRFFVSAVPFETGTIQRTIKPDVRSYTITGLQPGTAYDIALYTLFGYYYYPVVIDAST
B8: SEQ ID NO 231 (designed binder)
chain: VSDVPRDLEVVAATPTSLLISWDAPAVTVRKYYIGYKLQVMEPDQEFTVPGSKSTATISGLKPGVEYWIGVDAVSYYWGFDPISINYRT
B9: SEQ ID NO 250 (designed binder)
chain: NVSPPRRARVTDATETTITISWRTKTETITQFSVYAYPARSKYHIQRTIKPDVRSYTITGLQPGTGYRIYLQTLGGYSDEPVVIDAST
B10: SEQ ID NO 222 (designed binder)
chain: VSDVPRDLEVVAATPTSLLTSWDAPAVTVRNYAIYYYDDDTGRQEFTVPGSKSTATISGLKPGVDYYIGVEAVWYWVSSPISINYRT
B11: SEQ ID NO 242 (designed binder)
chain: NVSPPRRARVTDATETTITISWRTKTETITYFTVDAAPSLVVDNIQRTIKPDVRSYTITGLQPGTYYIILLYTLYNYDALPVVIDAST
B12: SEQ ID NO 232 (designed binder)
chain: VSDVPRDLEVVAATPTSLLISWDAPAVTVRGYGIYYGDTGDTQEFTVPGSKSTATISGLKPGVMYSIVVFAVEWYMWQPISINYRT
B13: SEQ ID NO 221 (designed binder)
chain: VSDVPRDLEVVAATPTSLLISWDAPAVTVRKYQIYYYYSAYVKESQEFTVPGSKSTATISGLKPGVSYNIAVYAVSKSRYQPPISINYRT
B14: SEQ ID NO 233 (designed binder)
chain: VSDVPRDLEVVAATPTSLLISWDAPAVTVRYYWIQYYIYYSRGTQEFTVPGSKSTATISGLKPGVNYSIGVQAVQAYFGEPISINYRT
B15: SEQ ID NO 223 (designed binder)
chain: VSDVPRDLEVVAATPTSLLISWDAPAVTVRTYTIWYVQRYAYSQEFTVPGSKSTATISGLKPGVSYSISVRAVSTDRYYPISINYRT
B16: SEQ ID NO 241 (designed binder)
chain: NVSPPRRARVTDATETTITISWRTKTETITSFNVVAYPSSQDGIQRTIKPDVRSYTITGLQPGTGYQIHLTTLGHLSFSPVVIDAST
B17: SEQ ID NO 234 (designed binder)
chain: VSDVPRDLEVVAATPTSLLISWDAPAVTVRSYRIMYSGYYAWEYSRQEFTVPGSKSTATISGLKPGVIYAIHVSAVVTNWEGPISINYRT
B18: SEQ ID NO 226 (designed binder)
chain: VSDVPRDLEVVAATPTSLLISWDAPAVTVRYHSIGYNYYGMYQEFTVPGSKSTATISGLKPGVYYYIYVRAVTGREAAPISINYRT
B19: SEQ ID NO 227 (designed binder)
chain: VSDVPRDLEVVAATPTSLLISWDAPAVTVRTYQIEYVSSYYRWTQEFTVPGSKSTATISGLKPGVVYFIYVAAVRDGPNDPISINYRT
B20: SEQ ID NO 238 (designed binder)
chain: VSDVPRDLEVVAATPTSLLISWDAPAVTVRIYYIAYGYYPGWGRAGSQEFTVPGSKSTATISGLKPGVTYGISVSAVEERRKVPISINYRT
B21: SEQ ID NO 236 (designed binder)
chain: VSDVPRDLEVVAATPTSLLISWDAPAVTVRYYYGIYYAGKAGGDYFITQEFTVPGSKSTATISGLKPGVEYRIYVAAVGYHYTPPISINYRT
B22: SEQ ID NO 220 (designed binder)
chain: VSDVPRDLEVVAATPTSLLISWDAPAVTVRSYSIGYFGAYRNWVQEFTVPGSKSTATISGLKPGVTYYIEVYAVYSNPVYPISINYRT
B23: SEQ ID NO 237 (designed binder)
chain: VSDVPRDLEVVAATPTSLLISWDAPAVTVRNYSIKYKYIPYVSHQEFTVPGSKSTATISGLKPGVTYSIRVQAVYYLIERYPISINYRT
B24: SEQ ID NO 228 (designed binder)
chain: VSDVPRDLEVVAATPTSLLISWDAPAVTVRSYKISYYGYHWVYQEFTVPGSKSTATISGLKPGVSYLISVSAVDYYGVLPISINYRT
B25: SEQ ID NO 229 (designed binder)
chain: VSDVPRDLEVVAATPTSLLISWDAPAVTVRTYYIGYGMYTYGQEFTVPGSKSTTTISGLKPGVVYDIYVWAVGFGRYVDPISINYRT
B26: SEQ ID NO 248 (designed binder)
chain: NVSPPRRARVTDATETTITISWRTKTETITYFGVGADPAMYIEYPYIQRTIKPDVRSYTITGLQPGTQYGIYLTTLSQASDYPVVIDAST
B27: SEQ ID NO 235 (designed binder)
chain: VSDVPRDLEVVAATPTSLLISWDAPAVTVRDYWIYYRYSWPYGSQEFTVPGSKSTATISGLKPGVTYDIQVEAVYGSESGPISINYRT
B28: SEQ ID NO 240 (designed binder)
chain: NVSPPRRARVTDATETTITISWRTKTETITDFEVAALPMVSTGIQRTIKPDVRSYTITGLQPGTTYYISLYTLDDDGPGTPVVIDAST
B29: SEQ ID NO 246 (designed binder)
chain: NVSPPRRARVTDATETTITISWRTKTETITYFYVAADPTEDGKIQRTIKPDVRSYTITGLQPGTYYTIHLRTLYYLVAVPVVIDAST

What follows are binders tested against T1, human serum albumin (human, UniProt P02768 25-609) (assay: cradle library selection hit).
T1 construct: also called HSA
T1 sequence (P02768 25-609 limits assumed): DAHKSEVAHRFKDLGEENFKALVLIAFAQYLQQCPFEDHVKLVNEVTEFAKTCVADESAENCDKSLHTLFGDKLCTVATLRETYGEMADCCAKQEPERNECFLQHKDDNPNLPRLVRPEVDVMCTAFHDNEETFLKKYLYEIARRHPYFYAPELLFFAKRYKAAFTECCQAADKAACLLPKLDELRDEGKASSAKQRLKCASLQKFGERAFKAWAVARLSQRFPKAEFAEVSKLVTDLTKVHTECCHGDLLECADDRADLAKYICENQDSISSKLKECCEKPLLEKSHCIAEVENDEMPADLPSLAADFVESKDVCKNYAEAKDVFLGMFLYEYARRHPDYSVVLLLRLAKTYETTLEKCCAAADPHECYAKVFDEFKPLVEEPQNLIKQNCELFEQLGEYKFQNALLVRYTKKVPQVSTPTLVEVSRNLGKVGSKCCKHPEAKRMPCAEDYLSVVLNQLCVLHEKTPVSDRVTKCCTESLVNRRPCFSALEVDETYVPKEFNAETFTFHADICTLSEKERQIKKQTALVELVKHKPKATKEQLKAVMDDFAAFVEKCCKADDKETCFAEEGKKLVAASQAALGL

binding result | Binder
binds | B1
binds | B2
binds | B3
binds | B4
binds | B5
binds | B6
binds | B7
binds | B8
binds | B9
binds | B10
binds | B11
binds | B12
binds | B13
binds | B14
binds | B15
binds | B16
binds | B17
binds | B18
binds | B19
binds | B20
binds | B21
binds | B22
binds | B23
binds | B24
binds | B25
binds | B26
binds | B27
binds | B28
binds | B29
